Experimental data taken from the nanobody polyreactivity screen of Harvey et al. (2022).

Experiment: yeast display, Sf9 membrane polyspecificity reagent, FACS + sequencing; frameworks hold sequencing errors
Method in brief: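 In a synthetic yeast display library (Saccharomyces cerevisiae BJ5465), nanobody expression was induced with galactose for 36–48 hours. FACS gates were set low and high (top ~1%) using anti-HA fluorescence for expression and streptavidin fluorescence for binding of the Sf9 membrane reagent. Each polyreactivity label is drawn from the gate of origin.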

Row | Sequence | polyreactivity (PSR sort gate)
1 | QVQLVESCGGLVQAGGSLRLSCAASGITFGRNTMGWYRQAPGKERELVAAIDSGGNTYADSVKGRFTISRDNAKNTVYLQMNSLKPEDTAVYYCAVDGGEFSSYGYWGQGTQVTVSS | low polyreactivity
2 | QVQLVESGGGLVQAGGSLRLSCAASGSTLLSNAMGWYTQAPGKERELVAAINYSGGRTYYADSVKGRFTISRDNAKNTVYLQMNSLKPEDTAVYYCNALSSGHGSSSRYDYWGQGTQVTVSS | low polyreactivity
3 | QVQLVESGGGLVQAGGSLRLSCAASGFIFVYYAMGWYRQAPGKERELVAAISKRGGNTYYADSVKGRFTISRDNAKNTVYLQMNSLKPEDTAVYYCAAGFTTRRGEYNYWGQGTQVTVSS | high polyreactivity
4 | QVQLVESGGGLVQAGGSLRLSCAAAGFIFQYNGMGWYRQAPGKERELVAAITSSVNTYYADSVKGRFTISRDNAKNTVYLQMNSLKPEDTAVYYCNADDPDKSWGQGTQVTVSS | low polyreactivity
5 | QVQLVESGGGLVQAGGSLRLSCAASGGTFWDYAMGWYRQAPGKERELVAAITYGTASTDYADSVKGRFTISRDNAKNTVYLQMNSLKPEDTAVYYCAARWNQYPYSYSTYDYWGQGTQVTVSS | low polyreactivity
6 | QVQLVESGGGLVQAGGSLRLSCAASGSIFWSYAMGWYRQAPGKERELVAAIRRGGSTNYADSVKGRFTISRDNAKNTVYLQMNSLKPEDTAVYYCAKSRGVRREPPKYATTYNYWGQGTQVTVSS | low polyreactivity
7 | QVQLVESGGGLVQAGGSLRLSCAASGSTFGTYAMGWYRQAPGKERELVAVISWSDGRTYYADSVKGRFTISRDNAKNTVYLQMISLKPEDTAVYYCNARLDTFVPRYGYWGQGTQVTVSS | high polyreactivity
8 | QVQLVESGGGLVQAGGSLRLSCSASGSIFNYYTMGWDRQAPGKERELVAVITWSDDSTYYADSVKGRFTISRDNAKNTVYLQMNSLKPEDTAVYYCNARSWGWYRIAYGYWGQGTQVTVSS | low polyreactivity
9 | QVQLVESGGGSLRLSCAASGLTFGGYTMGWYRQAPGKERELVAAISSSDSTNYADSVKGRFTISRDNAKNTVYLQMNSLKPEDTAVYYCAADSGQWSRYSSFGDEGDSWGQGTQVTVSS | low polyreactivity
10 | QVQLVESGGGLVQAGGSLRLSCAASGSTFYYYAMGWYRQAPGKEREFVAAITWSGGSTYYADSVKGRFTISRDNAKNTVYLQMNSLKPEDTAVYYCAKDQRYYYYGGGDYWGQGTQVTVSS | low polyreactivity
11 | QVQLVESGGGLVQAGGSLRLSCAASGFTFYGNAMGWYRQAPGKERELVAAISSTGGSTFYADSVKGRFTISRDNAKNTVYLQMNSLKPEDTAVYYCAVRRYTKFRSTRYYYWGQGTQVTVSS | high polyreactivity
12 | QVQLVESGGGLVQAGGSLRLSCAASGFTFRWYTMGWYRPAPGKERELVAAISWSGTSTYYADSVKGRFTISRDNAKNTVYLQMNSLKPEDTAVYYCAAADFYYTGADDYWGQGTQVTVSS | high polyreactivity
13 | QVQLVESGGGLVQAGGSLRLSCAASGITFQYYAMGWYRQAPGKERELVAAITSSGVSTYYADSVKGRFTISRDNAKNTVYLQMNSLKPEDTAVYYCNTVVRGWSSSAYDDWGQGTQVTVSS | low polyreactivity
14 | QVQLVESGGGLVQAGGSLSLSCAASGFIFDYYTMGWYRQAPGKEREFVAAINRRGDITYYADSVKGRFTISRDNAKNTVYLQMNSLKPEDTAVYSCAATLTWSSRYEYGYWGQGTQVTVSS | low polyreactivity
15 | QVQLVESGGGLVQAGGSLRLSCAASGRILRQYAMGWYRQAPGKESELVAAISRSGASTFYADSVKGRFTISRDNAKNTVYLQMNSLKPEDTAVYYCAAEHHAFTWAAINYGSWGQGTQVTVSS | high polyreactivity
16 | QVQRVDSGGGLVQAGGSLRLSCAASGSIFEWYDMVWYRQAPGTERELVAAITTGGITNYSDSVKARFTISRDNAKNTVYLQMNSLKPEDTAVYYCNADFTVEFDYWGQGTQVTVSS | low polyreactivity
17 | QVHLVESGGGLVQAGGSLRLSCAASGRIFNSYAMGWYRPAPGKERELVAAINWTDVSTYYADSVKGRFTLSRYNAKNTVYVELNSLTPDDTAVYYGPDVRWGSYTLSDDYWGQGTQVTVSS | low polyreactivity
18 | QVQLVESGGGLVQAGGSLRLSCAASGRIFFANAMGWYRQAPGKERELVATITSGESTNYADSVKGRFTISRDNAKNTVYFEMNSLKPEDTAVYYCAADYYWYSPGAYSYAGYDYWGQGTQVTVSS | low polyreactivity
19 | QVQLVESGGGLVQAGGSLRLSCAASGLTFSSYAMGWYRQAPGKERELVAAISLSGGRTYYADSVKGRFTISRDNAKNTVYLQMNSLKPEDTAVYYCAARRPNLQHANDYWGQGTQVTVSS | high polyreactivity
20 | QVQLVESGGGLVQAGGSLRLSCAASGSIYGYAMGWYRQAPGKERELVAAISGRGGRTYYADSVKGRFTISRDNAKNTVYLQMNSLKPEDTAVYYCNVQWRYPYHYTVDYWGQGTQVTVSS | high polyreactivity
21 | QVQLVESGGGLVLARGTLRLSCPASGFTFSRYAMGWYRQAPGKERELVAAISRTGGRTYYADSVKGRFTISRDNAKNTVYLQMNSLKPVDTAVYYCARLPVHSHLRQTYAMEYWGQGTQVTVSS | high polyreactivity
22 | QVQLEESGGGLVQAGGSLRLSCAASGITFDDYTMGWYRQAPGKERELVAAITRSGGSTYYADSVKGRFTISRDTAKITVSLQMNSLKPEDTAVYYCSRVKGRGFKNGYWGQGTKVTVSS | high polyreactivity

Row | Sequence | polyreactivity (PSR sort gate)
23 | QVQLVESGGGLVQAGGSLRLSCAASGSTFTRNPLGWYRQAPGKERELVATISRSGGSTYYADSVKGRFTISRDNAKNTVYLQMNSLKPEDTAVYYCARPYQYYKFYSHDYWGQGTQVTVSS | high polyreactivity
24 | QVQLVESGGGLVQAGGSLRLSCAASGRIFGINAMGSYRQAPGKERELVAAINWSGGSTYYADSVKGRFTISRDNAKNTVYLQMNSLKPEDTAVYYCAAQKYKRVGYWGQGTQVTVSS | high polyreactivity
25 | QVQLVESGGGLVHAGGSLRLSCAASGSIFYPYAMGWYRKAPGKERELVAAISRSGGRTYYADSVKGRFTISRDNAKNTVYLQMNSLKPEDTAVYYCNAYYPGNGPRSTSTRYEYWGQGTQVTVSS | high polyreactivity
26 | QVQLVESGGGLVQAGGSLRLSCAASGSTFRGNAMGWYRQAPGKERELVAGISGSGGRTYYADSVKGRFTISRDNAKNTVYLQMNSLKPEDTAVYYCAARSTVYEYFYYRGWWEYYYWGQGTQVTVSS | low polyreactivity
27 | QVQLVESGGGLVQAGGSLRLSCAASGLIFRVYAMGWYRQAPGKERELVATITRGGRTYYADSVKGRFTISRDNAKNTVYLQMNSLKPEDTAVYYCAVLSVRRSYNYWGQGTQVTVSS | high polyreactivity
28 | QVQLVESGGGLVHAGGSLRLSCAASGRTFIAYAMGWYRQAPGKERELVADISLRGGSTYYADSVKGRFTISRDNAKNTVYLQMNSLKPEDTAVYYCNTRRLHGWLYGYEYWGQGTQVTVSS | low polyreactivity
29 | QVQLVESGGGLVQAGGSLRLSCAASGSNFYGYTMGWYRQAPGKERELVAAISWSGGSTYYADSVKGRFTISRDNAKNTVYLQMNSLKPEDTAVYYCAARWGYSRRGYRGYDYWGQGTQVTVSS | high polyreactivity
30 | QVQLEESGGGIVQAGGSLRLSCAASGRTFVTNAMGWYRKAPGKERELVATINWSGGRTHYADSVKGRFTISRDNAKNTVYLQMNSLKPEDTAVYYCAKASSRRYWTIRDGDYWGQGTQVSVSS | low polyreactivity
31 | QVQLVESGGVLVQAGGSLRLSCAASGSIFYVNTMGWYRQAPGKDRELVADISSGDSTYYADSVKGRFTISRDNAKNTVYLQMNSLKPEDTAVFYCNADVYSWVSGKEGDYWGQGTQVTVSS | low polyreactivity
32 | QVQLVESGGGLVQAGGSLRLSCAASGRTLRTYAMGWYRQAPGKERELVAAITSSGGRTYYADSVKGRFTISRDNAKNTVYLQMNSLKPEDTAVYYCAAARYYYGGDYWGQGTQVTVSS | high polyreactivity
33 | QVQLVESGGGLVQAGGSLRLSCAASGSIFRFKAMGWYRQAPGKERELVAAITSSGGSTYYADSVKGRFTISRDNAKNTVYLQMNSLKPEDTAVYYCAAGARRVGRYYWGQGTQVTVSS | high polyreactivity
34 | QVQLVESGGGLVQAGGSLRLSCAASGRTFYSYAMGWYRQAPGKERELVAAITSGDSTNYADSVKGRFTISRDNAKNTVYLQMNSLKPEDTAVYYCAAEYSGWYWYQHYNYWGQGTQVTVSS | high polyreactivity
35 | QVQLVESGGGLVQAGGSLRLSCAASGRTFRRYTMGWYRQAPGKERELVATISKTGGSTYYADSVKGRFTISRDNAKNTVYLQMNSLKPEDTAVYYCAARSVALFIMYYWGQGTQVTVSS | high polyreactivity
36 | QVQLVESGGGLVQAGGSLRLSCAASGRTFGYNTMGWYRQAPGKERELVATISRGGSTYYADSVKGRFTISRDNAKNTVYLQMNSLKPEDTAVYYCRYQSRFRYDYWGQGTQVTVSS | high polyreactivity
37 | QVQLVESGGGLVQAGGSLRLSCAASGSTFRYYVMGWYRQAPRKERELVAGISYRGGTTYYADSVKGRFSISRDNAKNTVYLQMNSLKPEDTAVYYCAADSTPYVLSGNYDYWGQGPQVTVSS | low polyreactivity
38 | QVQLVESGGGLVQAGGSLRLSCAASGLIFYDNVMGWYRQAPVKEREFVAAITSIGGSTYYADSVKGRFTISRDNAKNTVYLQMNSLKPEDTAVYYCNVKSKYYSPNYDYWGQGTQVTVSS | low polyreactivity
39 | QVQLVESGGGLVQAGGSLRLSCAASGSIFVGNAMGWYRQAPGKERELVAAISSSGGRTFYADSVKWRFTISRDNAKNTVYLQMNSLKPEDTAVYYCAAVYTHWQQRMDYWGQGTQVTVSS | high polyreactivity
40 | QVQLVESGGGLVQAGGSLRLSCAASGSTDNNAMGWYRQAPGKERELVAAIRFRSGSTYYADSVNGRFTISRDNAKNTVYLQMNSLKPEDTAVYYCAAPGSPYGYWGQGTQVTVSS | high polyreactivity
41 | QVHLVESGGGLVQAGGSLRLSCAASGRIFGTYVMGWYRQAPGKERELVARITGGGSTNYADSVKGRFTISRDNAKNTVYLQMNSLKPEDTAVYYCARDYGPYLSPENPAPMDYWGQGTQVTVSS | low polyreactivity
42 | QVQLVESGGGLVQAGGSLRLSCAASGSIFTVNTMGWYRQAPGKERELVATISKRGGRTYYADSVKGRFTISRDNAKNTVYLQMNSLKPEDTAVYYCNRVASGYPVGTSIDYGYWGQGTQVTVSS | high polyreactivity
43 | QVQLVESGGGLVQAGGSLRLSCAATGRIISFYVMGWYRQAPGKERELVAAISLSGGSTYYADSVKGRFTNSRDNAKNTVFLQMNCLKPEDTAVYYCYAVLYARQRERWARYDYWGQGTQVTVSS | high polyreactivity
